Assay in all cases: enzyme inhibition, pNA substrate
Experiment [1] has as its target T1, Urokinase from human urine (human, UniProt P00749 21-431, limits assumed).
T1 construct: purified natural enzyme, bought

Experiment [2] deals with T2, Coagulation Factor Xa, from uman plasma (human, UniProt P00742 41-179; P00742 235-488, limits assumed).
T2 construct: purified natural enzyme, bought; also called FXa

In experiment [3] the target is Thrombin, from Human Plasma, high activity (human, UniProt P00734 328-622).
Experiment [4] has as its target T3, Chymotrypsin, from human pancreas (human, UniProt P17538 19-263).
T3 construct: purified natural enzyme, bought

Experiment [5] concerns the target T4, Trypsin, Iodination grade, from human pancreas (human, UniProt P07477 24-247).
T4 construct: purified natural enzyme, bought

A further experiment addresses T5, Chymase, from human skin (human, UniProt P23946 22-247).
T5 construct: purified natural enzyme, bought
T5 sequence (looked up): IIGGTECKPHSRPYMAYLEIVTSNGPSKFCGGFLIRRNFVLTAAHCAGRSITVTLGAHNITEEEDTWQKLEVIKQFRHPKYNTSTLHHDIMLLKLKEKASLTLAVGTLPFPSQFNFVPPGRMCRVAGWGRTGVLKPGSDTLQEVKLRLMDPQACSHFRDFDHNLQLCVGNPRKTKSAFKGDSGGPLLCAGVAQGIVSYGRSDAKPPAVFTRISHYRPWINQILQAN

For experiment [6], the target named is T6, Tryptase, from human lung (human, UniProt Q15661 31-275, limits assumed).
T6 construct: purified natural enzyme, bought
T6 sequence (Q15661 31-275 limits assumed): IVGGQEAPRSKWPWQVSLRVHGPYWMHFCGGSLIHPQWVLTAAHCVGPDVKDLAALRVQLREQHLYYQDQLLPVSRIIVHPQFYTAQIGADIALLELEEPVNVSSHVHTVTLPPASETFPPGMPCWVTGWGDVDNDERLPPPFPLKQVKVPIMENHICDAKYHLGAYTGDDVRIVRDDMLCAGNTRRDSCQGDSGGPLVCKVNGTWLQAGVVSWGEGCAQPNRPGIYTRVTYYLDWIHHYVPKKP

T3 sequence (P17538 19-263): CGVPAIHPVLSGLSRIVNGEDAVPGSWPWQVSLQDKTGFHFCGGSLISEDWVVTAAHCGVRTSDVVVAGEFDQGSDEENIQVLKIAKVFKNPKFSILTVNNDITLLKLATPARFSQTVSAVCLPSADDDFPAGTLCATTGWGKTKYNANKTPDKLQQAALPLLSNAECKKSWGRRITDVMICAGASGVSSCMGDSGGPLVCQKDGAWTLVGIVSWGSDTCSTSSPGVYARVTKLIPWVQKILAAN
T2 sequence (P00742 41-179 limits assumed, chain 1 of 2): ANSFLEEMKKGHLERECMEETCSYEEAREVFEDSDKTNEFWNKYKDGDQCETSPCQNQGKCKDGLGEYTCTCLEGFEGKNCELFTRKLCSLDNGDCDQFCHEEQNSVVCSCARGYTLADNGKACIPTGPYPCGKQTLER
T2 sequence (P00742 235-488 limits assumed, chain 2 of 2): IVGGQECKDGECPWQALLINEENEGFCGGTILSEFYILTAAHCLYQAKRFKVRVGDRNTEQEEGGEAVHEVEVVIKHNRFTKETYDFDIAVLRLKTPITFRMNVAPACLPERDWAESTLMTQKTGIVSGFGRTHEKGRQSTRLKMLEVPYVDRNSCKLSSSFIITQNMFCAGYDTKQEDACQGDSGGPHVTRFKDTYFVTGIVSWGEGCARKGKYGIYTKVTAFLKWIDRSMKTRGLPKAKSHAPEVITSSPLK

B1: Example 167 (peptide)
peptide: XCTASIPPQCY
HELM: PEPTIDE1{[Nle].C.T.A.S.I.P.P.Q.C.Y.[dP].F}$PEPTIDE1,PEPTIDE1,2:R3-10:R3|PEPTIDE1,PEPTIDE1,1:R1-13:R2$$$V2.0
SMILES: CCCC[C@@H]1NC(=O)[C@H](Cc2ccccc2)NC(=O)[C@H]2CCCN2C(=O)[C@H](Cc2ccc(O)cc2)NC(=O)[C@@H]2CSSC[C@H](NC1=O)C(=O)N[C@@H]([C@@H](C)O)C(=O)N[C@@H](C)C(=O)N[C@@H](CO)C(=O)N[C@@H]([C@@H](C)CC)C(=O)N1CCC[C@H]1C(=O)N1CCC[C@H]1C(=O)N[C@@H](CCC(N)=O)C(=O)N2
notes: also called Ex. 167
As to B1, the “% inhibition at 100 µM” value in experiment [1] came to 11.1%; in experiment [2], 19.6%; in experiment [3], 0%; in experiment [4], 60.2%; in experiment [5], 19%.

B2: Example 140 (peptide)
peptide: XCTASXPPQCY
HELM: PEPTIDE1{[Nle].C.T.A.S.[O=C([C@@H](N[*:1])C1CCCCC1)[*:2]].P.P.Q.C.Y.[dP].P}$PEPTIDE1,PEPTIDE1,2:R3-10:R3|PEPTIDE1,PEPTIDE1,1:R1-13:R2$$$V2.0
SMILES: CCCC[C@@H]1NC(=O)[C@@H]2CCCN2C(=O)[C@H]2CCCN2C(=O)[C@H](Cc2ccc(O)cc2)NC(=O)[C@@H]2CSSC[C@H](NC1=O)C(=O)N[C@@H]([C@@H](C)O)C(=O)N[C@@H](C)C(=O)N[C@@H](CO)C(=O)N[C@@H](C1CCCCC1)C(=O)N1CCC[C@H]1C(=O)N1CCC[C@H]1C(=O)N[C@@H](CCC(N)=O)C(=O)N2
notes: also called Ex. 140
Consider B2, for which the “% inhibition at 100 µM” value with Chymase, from human skin was 0%; in experiment [1], 10.4%; in experiment [2], 13.3%; in experiment [3], 20.6%; in experiment [4], 79.6%; in experiment [5] it was 10.8%.

B3: Example 99 (peptide)
peptide: XCTASIPPQCY
HELM: PEPTIDE1{[CCCCCC[C@H](N[*:1])C(=O)[*:2]].C.T.A.S.I.P.P.Q.C.Y.[dP].P}$PEPTIDE1,PEPTIDE1,2:R3-10:R3|PEPTIDE1,PEPTIDE1,1:R1-13:R2$$$V2.0
SMILES: CCCCCC[C@@H]1NC(=O)[C@@H]2CCCN2C(=O)[C@H]2CCCN2C(=O)[C@H](Cc2ccc(O)cc2)NC(=O)[C@@H]2CSSC[C@H](NC1=O)C(=O)N[C@@H]([C@@H](C)O)C(=O)N[C@@H](C)C(=O)N[C@@H](CO)C(=O)N[C@@H]([C@@H](C)CC)C(=O)N1CCC[C@H]1C(=O)N1CCC[C@H]1C(=O)N[C@@H](CCC(N)=O)C(=O)N2
notes: also called Ex. 99
Take B3: the “% inhibition at 100 µM” value is 0% in the experiment with Chymase, from human skin; 17.4% in experiment [1]; 0% in experiment [2]; 0% in experiment [6]; 0% in experiment [3]; 30.5% in experiment [5].

B4: Example 146 (peptide)
peptide: XCTASIPPQCF
HELM: PEPTIDE1{[O=C([C@H](CCc1ccccc1)N[*:1])[*:2]].C.T.A.S.I.P.P.Q.C.F.[dP].P}$PEPTIDE1,PEPTIDE1,2:R3-10:R3|PEPTIDE1,PEPTIDE1,1:R1-13:R2$$$V2.0
SMILES: CC[C@H](C)[C@@H]1NC(=O)[C@H](CO)NC(=O)[C@H](C)NC(=O)[C@H]([C@@H](C)O)NC(=O)[C@@H]2CSSC[C@H](NC(=O)[C@H](CCC(N)=O)NC(=O)[C@@H]3CCCN3C(=O)[C@@H]3CCCN3C1=O)C(=O)N[C@@H](Cc1ccccc1)C(=O)N1CCC[C@@H]1C(=O)N1CCC[C@H]1C(=O)N[C@@H](CCc1ccccc1)C(=O)N2
For B4, the “% inhibition at 100 µM” value in the experiment with Chymase, from human skin was determined as 0%; in experiment [1], 0%; in experiment [6], 22%; in experiment [3], 11%; in experiment [4], 87%.

B5: Example 95 (peptide)
peptide: XCTASIPPQCX
HELM: PEPTIDE1{[Nle].C.T.A.S.I.P.P.Q.C.[O=C([C@H](Cc1ccc2ccccc2c1)N[*:1])[*:2]].[dP].P}$PEPTIDE1,PEPTIDE1,2:R3-10:R3|PEPTIDE1,PEPTIDE1,1:R1-13:R2$$$V2.0
SMILES: CCCC[C@@H]1NC(=O)[C@@H]2CCCN2C(=O)[C@H]2CCCN2C(=O)[C@H](Cc2ccc3ccccc3c2)NC(=O)[C@@H]2CSSC[C@H](NC1=O)C(=O)N[C@@H]([C@@H](C)O)C(=O)N[C@@H](C)C(=O)N[C@@H](CO)C(=O)N[C@@H]([C@@H](C)CC)C(=O)N1CCC[C@H]1C(=O)N1CCC[C@H]1C(=O)N[C@@H](CCC(N)=O)C(=O)N2
notes: also called Ex. 95
For the molecule B5, the “% inhibition at 100 µM” value with Chymase, from human skin was 0%; in experiment [1], 10.3%; in experiment [2], 11.3%; in experiment [6] it was 0%; in experiment [3], 0%.

B6: Example 98 (peptide)
peptide: XCTASIPPQCX
HELM: PEPTIDE1{[Nle].C.T.A.S.I.P.P.Q.C.[Phg].[dP].P}$PEPTIDE1,PEPTIDE1,2:R3-10:R3|PEPTIDE1,PEPTIDE1,1:R1-13:R2$$$V2.0
SMILES: CCCC[C@@H]1NC(=O)[C@@H]2CCCN2C(=O)[C@H]2CCCN2C(=O)[C@H](c2ccccc2)NC(=O)[C@@H]2CSSC[C@H](NC1=O)C(=O)N[C@@H]([C@@H](C)O)C(=O)N[C@@H](C)C(=O)N[C@@H](CO)C(=O)N[C@@H]([C@@H](C)CC)C(=O)N1CCC[C@H]1C(=O)N1CCC[C@H]1C(=O)N[C@@H](CCC(N)=O)C(=O)N2
notes: also called Ex. 98
Consider B6, for which the “% inhibition at 100 µM” value in the experiment with Chymase, from human skin amounted to 0%; in experiment [1], 0%; in experiment [2], 0%; in experiment [6] it was 0%; in experiment [5] it was 0%.

B7: Example 97 (peptide)
peptide: XCTASIPPQCX
HELM: PEPTIDE1{[Nle].C.T.A.S.I.P.P.Q.C.[Cha].[dP].P}$PEPTIDE1,PEPTIDE1,2:R3-10:R3|PEPTIDE1,PEPTIDE1,1:R1-13:R2$$$V2.0
SMILES: CCCC[C@@H]1NC(=O)[C@@H]2CCCN2C(=O)[C@H]2CCCN2C(=O)[C@H](CC2CCCCC2)NC(=O)[C@@H]2CSSC[C@H](NC1=O)C(=O)N[C@@H]([C@@H](C)O)C(=O)N[C@@H](C)C(=O)N[C@@H](CO)C(=O)N[C@@H]([C@@H](C)CC)C(=O)N1CCC[C@H]1C(=O)N1CCC[C@H]1C(=O)N[C@@H](CCC(N)=O)C(=O)N2
notes: also called Ex. 97
As to B7, the “% inhibition at 100 µM” value with Chymase, from human skin is 0%; in experiment [1] it was 11.9%; in experiment [6] it was 0%; in experiment [3] it was 11.6%.

B8: Example 122 (peptide)
peptide: XCTASIPPQCY
HELM: PEPTIDE1{[Nle].C.T.A.S.I.P.P.Q.C.Y.[dP].F}$PEPTIDE1,PEPTIDE1,2:R3-10:R3|PEPTIDE1,PEPTIDE1,1:R1-13:R2$$$V2.0
SMILES: CCCC[C@@H]1NC(=O)[C@H](Cc2ccccc2)NC(=O)[C@H]2CCCN2C(=O)[C@H](Cc2ccc(O)cc2)NC(=O)[C@@H]2CSSC[C@H](NC1=O)C(=O)N[C@@H]([C@@H](C)O)C(=O)N[C@@H](C)C(=O)N[C@@H](CO)C(=O)N[C@@H]([C@@H](C)CC)C(=O)N1CCC[C@H]1C(=O)N1CCC[C@H]1C(=O)N[C@@H](CCC(N)=O)C(=O)N2
For the molecule B8, the “% inhibition at 100 µM” value was 11.1% in experiment [1], 19.6% in experiment [2], 0% in experiment [3] and 19% in experiment [5].
